Three molecules from US20130064817A1 (Merck Sharp & Dohme, published 2013) can be followed below.

The target of assay [1] is T1, human IL-23R on human cells (primary splenocytes; KIT225 cells) (human, UniProt Q5VWK5 24-629).
T1 sequence: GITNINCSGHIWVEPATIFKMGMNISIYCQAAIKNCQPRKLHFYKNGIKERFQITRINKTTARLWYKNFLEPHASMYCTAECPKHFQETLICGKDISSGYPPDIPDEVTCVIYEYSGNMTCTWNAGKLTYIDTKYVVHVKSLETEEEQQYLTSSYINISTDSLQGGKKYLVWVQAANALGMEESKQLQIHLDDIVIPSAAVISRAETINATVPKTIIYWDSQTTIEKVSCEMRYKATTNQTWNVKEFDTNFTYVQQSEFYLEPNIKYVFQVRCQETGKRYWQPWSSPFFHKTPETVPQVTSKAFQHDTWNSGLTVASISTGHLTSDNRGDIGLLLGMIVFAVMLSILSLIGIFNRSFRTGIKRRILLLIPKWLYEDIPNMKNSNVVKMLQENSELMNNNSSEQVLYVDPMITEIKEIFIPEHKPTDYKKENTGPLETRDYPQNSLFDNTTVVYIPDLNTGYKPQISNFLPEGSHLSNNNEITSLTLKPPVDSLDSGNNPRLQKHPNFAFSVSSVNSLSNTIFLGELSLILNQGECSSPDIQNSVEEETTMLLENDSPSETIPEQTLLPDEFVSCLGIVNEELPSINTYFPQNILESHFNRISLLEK
Description: cell-based or functional assay.

Assay [2] has as its target T2, human IL-23R (human, UniProt Q5VWK5 24-353, limits assumed).
T2 construct: KinExA particles are coated with biotinylated IL-23R 'or a fragment thereof, such as the extracellular domain'; also called huIL-23R; hIL-23R
T2 sequence: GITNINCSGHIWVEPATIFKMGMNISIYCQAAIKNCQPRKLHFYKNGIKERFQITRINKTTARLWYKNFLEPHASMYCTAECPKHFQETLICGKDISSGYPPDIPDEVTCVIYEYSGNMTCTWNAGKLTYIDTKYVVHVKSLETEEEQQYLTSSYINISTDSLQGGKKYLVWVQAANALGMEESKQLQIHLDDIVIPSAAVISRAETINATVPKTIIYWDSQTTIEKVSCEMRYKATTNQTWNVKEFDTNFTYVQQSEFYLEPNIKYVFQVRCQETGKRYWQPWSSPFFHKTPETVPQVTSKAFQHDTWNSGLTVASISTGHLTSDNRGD
Description: BIAcore, essentially as in Example 4. On the procedure:
(§1) BIAcore® label-free interaction analysis system determinations are performed essentially as described at Example 4 of U.S. Patent Application Publication No. 2007/0048315. Briefly, ligands (anti-IL-23R mAbs) are immobilized on a BIAcore® label-free interaction analysis system CM5 sensor chip using standard amine-coupling procedure. Kinetic constants for the various interactions are determined using BIAevaluation software 3.1. The Kd is determined using the calculated dissociation and association rate constants.
A general note: Surface plasmon resonance follows binding to a sensor surface in real time, without labels.

Assay [3] deals with T2, human IL-23R. Description: KinExA. On the procedure:
The equilibrium dissociation constants (Kd) for anti human IL-23R antibodies are determined using the KinExA 3000 instrument. Sapidyne Instruments Inc., Boise Id., USA KinExA uses the principle of the Kinetic Exclusion Assay method based on measuring the concentration of uncomplexed antibody in a mixture of antibody, antigen and antibody-antigen complex. The concentration of free antibody is measured by exposing the mixture to a solid-phase immobilized antigen for a very brief period of time. In practice, this is accomplished by flowing the solution phase antigen-antibody mixture past antigen-coated particles trapped in a flow cell. Data generated by the instrument are analyzed using custom software. Equilibrium constants are calculated using a mathematical theory based on the following assumptions:
PMMA particles (Sapidyne, Cat No. 440198) are coated with biotinylated IL-23R (or a fragment thereof, such as the extracellular domain) according to Sapidyne “Protocol for coating PMMA particles with biotinylated ligands having short or nonexistent linker arms.” EZ-link TFP PEO-biotin (Pierce, Cat. No. 21219) is used to make biotinylated IL-23R, as per the manufacturer's recommendations (Pierce bulletin 0874).

For assay [4], the target named is T2, human IL-23R. Description: BIAcore, antibody immobilized on CM5 chip. On the procedure:
as §1

One may read the Kd as the equilibrium constant for the complex coming apart. Read a high Kd as lower affinity.

B1: humanized anti-IL-23R antibody hum20D7 (heavy chain hu20D7-c, light chain hu20D7-II-b) (antibody, human IgG1, kappa, V domains shown)
VH: QVQLVQSGAEVKKPGASVKVSCKASGYTFTNYAMNWVRQAPGQGLEWMGWINTYTGEPTYSDDFKGRVTFTLDTSTSTAYMELRSLRSDDTAVYYCARGGGYDEDYFDYWGQGTLVTVSS
VL: DIVMTQSPLSLPVTPGEPASISCKSSQSLFNTINQKTYLAWYLQKPGQSPQLLIYFASTRESGVPDRFSGSGSGTDFTLKISRVEAEDVGVYYCQQHYDTPWTFGQGTKVEIKR
B1: in assay [1], the “IC50, IFN-γ production by human primary splenocytes exposed to human IL-23 (170 pM)” value came to 34 pM and the “IC50, STAT3 phosphorylation in KIT225 cells stimulated with 138 pM human IL-23” value amounted to 34 pM. The same molecule came in with a Kd with human IL-23R [2] of 0.131 nM.

B2: mouse anti-human IL-23R antibody 20D7 (antibody, mouse IgG1, V domains shown)
VH: QIQLVQSGPELKKPGETVKISCKASGYTFTNYAMNWVKQAPGKGLKWMGWINTYTGEPTYSDDFKGRFAFSLETSANTAYLQINNLKNEDTAAYFCTRGGGYDEDYFDYWGQGTTLTVSS
VL: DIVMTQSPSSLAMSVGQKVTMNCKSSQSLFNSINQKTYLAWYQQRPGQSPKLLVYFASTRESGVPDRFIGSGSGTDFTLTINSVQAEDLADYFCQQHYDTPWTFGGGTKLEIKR
notes: also called m20D7; mouse 20D7 antibody
Turning to B2, the Kd with human IL-23R [3] was 0.009 nM; with human IL-23R [4] it was roughly 0.085 nM.

B3: rat anti-human IL-23R antibody 8B10 (antibody, rat IgG2a, V domains shown)
VH: EVKLVESGGGLEQPKGSLKLSCTVSGFDFNSYGMSWVRQAPGKGLDLVADINSKSYNYATYYADSVKDRFTISRDDSQSMVYLEMDNLKTEDTALYYCTVHHSDYFEYWGQGVMVTVSS
VL: DIQMTQSPASLSASLGETVSIECLASEDIYNNLAWYQQKPGKSPQLLIYHASSLQDGVPSRFSGSGSGTQYSLKINSLESEDAATYFCLQDSEYPPTFGGGTKLELKR
notes: also called r8B10; parental rat 8B10 antibody
As for B3, the Kd with human IL-23R [3] was 0.042 nM; in the assay with human IL-23R [4], roughly 0.3 nM.
